The target of assay [1] is T1, 人TIGIT重组蛋白 (hTIGIT; TIGIT-hFc 或 TIGIT-his) (human) (UniProt Q495A1).
T1 sequence (looked up): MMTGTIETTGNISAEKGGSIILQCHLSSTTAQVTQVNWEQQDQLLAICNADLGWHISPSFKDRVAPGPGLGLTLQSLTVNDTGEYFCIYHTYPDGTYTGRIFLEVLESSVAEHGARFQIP
Briefly: ELISA on coated hTIGIT.

Assay [2] deals with T1, 人TIGIT重组蛋白 (hTIGIT; TIGIT-hFc 或 TIGIT-his) (human). Kind of assay: ELISA on coated hTIGIT. The source holds these as a separate data set.
The target in assay [3] is 人TIGIT-hFc (human) (UniProt Q495A1). Kind of assay: blocking ELISA: Bio-CD155 on coated TIGIT-hFc.
The target of assay [4] is T2, CHO-K1-T1001细胞表达的人TIGIT (human) (UniProt Q495A1).
T2 sequence (looked up): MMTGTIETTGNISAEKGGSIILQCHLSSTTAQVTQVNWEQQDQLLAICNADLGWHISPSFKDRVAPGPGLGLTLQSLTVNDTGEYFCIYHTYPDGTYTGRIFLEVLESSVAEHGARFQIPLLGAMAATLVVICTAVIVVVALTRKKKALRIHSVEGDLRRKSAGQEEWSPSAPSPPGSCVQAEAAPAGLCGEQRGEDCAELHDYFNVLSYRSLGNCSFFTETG
Briefly: cell ELISA on fixed hTIGIT+ CHO-K1 cells.

Assay [5] has as its target 恒河猴TIGIT-mFc (rhesus monkey; mouse). Kind of assay: ELISA on coated RhTIGIT-mFc.
Assay [6] has as its target 人TIGIT-hFc (human) (UniProt Q495A1). Kind of assay: blocking ELISA: Bio-CD155 on coated TIGIT-hFc. This is another data set of the same source.
Assay [7] addresses T2, CHO-K1-T1001细胞表达的人TIGIT (human). Briefly: cell ELISA on fixed hTIGIT+ CHO-K1 cells. The source holds these as a separate data set.

Where two headings read alike, the source gives them in different places.

Sequence of 恒河猴TIGIT-mFc (rhesus monkey; mouse) (P01863 other isoform, or with tags, fused parts or gaps): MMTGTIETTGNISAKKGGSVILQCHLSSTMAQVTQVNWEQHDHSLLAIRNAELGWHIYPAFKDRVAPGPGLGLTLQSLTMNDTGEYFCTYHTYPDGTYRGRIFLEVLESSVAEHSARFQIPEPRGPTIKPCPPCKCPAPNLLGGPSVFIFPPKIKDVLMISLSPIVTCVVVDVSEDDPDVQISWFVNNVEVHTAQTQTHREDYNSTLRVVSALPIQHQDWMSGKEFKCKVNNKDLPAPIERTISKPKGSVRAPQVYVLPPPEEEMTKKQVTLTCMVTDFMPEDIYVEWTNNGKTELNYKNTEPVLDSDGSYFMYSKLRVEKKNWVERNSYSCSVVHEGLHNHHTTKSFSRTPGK

阳性对照抗体Ref1 (罗氏RG6058) (antibody): the EC50 in assay [1] was found to be 1.13 nM; in assay [2], 0.462 nM; in assay [4], 0.0268 nM; in assay [5], 0.243 nM; in assay [7], 0.138 nM. Moreover, the IC50 stood at 3.3 nM in the assay with 人TIGIT-hFc (human) [3] and 1.19 nM with 人TIGIT-hFc (human) [6].

The record behind these values is patent CN116355095A.
